# Source: patent US20130253037
# Tests used:
# [1] = molecular target: 6-His-LIMK2 (recombinant, E. coli) (UniProt P53671)
# [2] = molecular target: 6-His-PHLDA1 (recombinant, E. coli) (UniProt Q8WV24)
# Sequence of 6-His-PHLDA1 (recombinant, E. coli) (Q8WV24 whole entry): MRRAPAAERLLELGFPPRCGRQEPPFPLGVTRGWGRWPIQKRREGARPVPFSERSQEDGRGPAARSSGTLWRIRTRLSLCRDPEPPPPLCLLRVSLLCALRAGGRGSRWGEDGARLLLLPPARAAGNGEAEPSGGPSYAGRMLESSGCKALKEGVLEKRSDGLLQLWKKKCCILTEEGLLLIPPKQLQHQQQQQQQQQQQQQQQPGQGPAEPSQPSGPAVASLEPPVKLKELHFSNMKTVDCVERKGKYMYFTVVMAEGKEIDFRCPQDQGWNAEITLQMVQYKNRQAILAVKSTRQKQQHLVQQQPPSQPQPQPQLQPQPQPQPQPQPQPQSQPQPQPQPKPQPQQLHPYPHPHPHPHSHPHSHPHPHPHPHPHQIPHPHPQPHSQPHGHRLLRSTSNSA
# Sequence of 6-His-LIMK2 (recombinant, E. coli) (P53671 whole entry, looked up): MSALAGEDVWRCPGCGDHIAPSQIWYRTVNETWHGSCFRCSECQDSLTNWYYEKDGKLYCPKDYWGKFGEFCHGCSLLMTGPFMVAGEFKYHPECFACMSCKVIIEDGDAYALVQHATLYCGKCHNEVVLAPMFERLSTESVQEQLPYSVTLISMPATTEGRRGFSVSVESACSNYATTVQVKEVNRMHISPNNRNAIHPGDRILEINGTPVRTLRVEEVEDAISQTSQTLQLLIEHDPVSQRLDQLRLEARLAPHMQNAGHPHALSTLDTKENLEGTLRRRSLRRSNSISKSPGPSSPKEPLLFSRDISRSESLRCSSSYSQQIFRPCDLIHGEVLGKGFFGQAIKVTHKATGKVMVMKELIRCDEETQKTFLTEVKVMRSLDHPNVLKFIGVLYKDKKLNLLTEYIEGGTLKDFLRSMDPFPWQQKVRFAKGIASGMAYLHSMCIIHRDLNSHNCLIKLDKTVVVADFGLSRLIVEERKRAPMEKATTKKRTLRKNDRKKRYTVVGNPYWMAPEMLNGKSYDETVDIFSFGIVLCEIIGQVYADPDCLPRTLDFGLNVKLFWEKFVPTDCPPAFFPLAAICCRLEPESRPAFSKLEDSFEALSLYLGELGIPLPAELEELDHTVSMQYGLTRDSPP
substance,measurement,setting,value
"6-His-Aurora-A (recombinant, wild type, from Sf9 insect cells)",LIMK2 kinase activity (cofilin phosphorylation) after pre-incubation with Aurora A,[1],LIMK2 preincubated with Aurora A showed increased kinase activity (lane 2)
same,in vitro kinase assay with recombinant Aurora A/TPX2 and 6-His-LIMK2 (phosphorylation of LIMK2),[1],"Aurora A directly phosphorylates LIMK2 (FIG. 5A, lane 2)"
same,"in vitro phosphorylation of wild-type, S283A, T494A and T505A LIMK2 alleles by Aurora A/TPX2",[1],Aurora A phosphorylates LIMK2 at all these sites (FIG. 8A)
same,"in vitro kinase assay, cofilin phosphorylation with [32P] ATP",6-His-cofilin,"Aurora A does not phosphorylate cofilin (FIG. 6H, lanes 1 and 4)"
same,in vitro kinase assay with Aurora A/TPX2 and [γ-32P]ATP (phosphorylation of PHLDA1),[2],"Aurora A directly phosphorylated PHLDA1 (FIG. 1A, lane 2)"
same,"in vitro phosphorylation of wild-type, Ser78A and Ser98A PHLDA1 alleles by Aurora A/TPX2",[2],Aurora A was found to predominantly phosphorylate PHLDA1 at Ser98 (FIG. 2C)
